Reference: patent CN111100204A

Experiments:
[1] = biological target: T1, 人CD20蛋白 (human CD20) (human) (UniProt P11836); experiment: indirect ELISA, recombinant human CD20 coated, rabbit anti-human IgG Fc-HRP
T1 sequence (looked up): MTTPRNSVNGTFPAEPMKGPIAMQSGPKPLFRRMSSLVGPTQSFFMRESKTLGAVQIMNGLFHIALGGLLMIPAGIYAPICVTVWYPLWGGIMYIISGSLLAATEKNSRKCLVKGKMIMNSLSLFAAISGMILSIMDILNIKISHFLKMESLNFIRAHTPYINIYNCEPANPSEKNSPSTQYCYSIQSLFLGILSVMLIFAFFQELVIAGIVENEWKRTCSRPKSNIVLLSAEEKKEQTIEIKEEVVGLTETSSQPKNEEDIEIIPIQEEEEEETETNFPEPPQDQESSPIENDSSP

[2] = biological target: T1, 人CD20蛋白 (human CD20) (human); experiment: SPR (Biacore), antibody captured on anti-human capture CM5 chip, antigen as analyte from 10 nM, 1:1 kinetic model

B1: 人源化抗体HB12 (humanized anti-CD20 antibody HB12) (antibody, part only; not given: IgG1 and kappa constant regions, human IgG1, V domains shown, part only)
VH: QVQLVQSGSELKKPGASVKVSCKASSYMHAVGMNWVKQAPGQGFEWMGWIYADSGTGGVTYVKGIIPTYAQGFTGRFVFSLDTSVSTAYLQISSLKAEDTATYYCDYYDGLYGMDVYGAGSFWGQGTTVTVSS
EC50 [1]: 0.0256 µg/mL | Kd [2]: 21.8 pM
